Test results taken from paper PMC3078058 (Nature, 2011).

B1: CusA inner membrane RND efflux pump (natural protein, Escherichia coli, UniProt P38054 1-1047, looked up)
chain: MIEWIIRRSVANRFLVLMGALFLSIWGTWTIINTPVDALPDLSDVQVIIKTSYPGQAPQIVENQVTYPLTTTMLSVPGAKTVRGFSQFGDSYVYVIFEDGTDPYWARSRVLEYLNQVQGKLPAGVSAELGPDATGVGWIYEYALVDRSGKHDLADLRSLQDWFLKYELKTIPDVAEVASVGGVVKEYQVVIDPQRLAQYGISLAEVKSALDASNQEAGGSSIELAEAEYMVRASGYLQTLDDFNHIVLKASENGVPVYLRDVAKVQIGPEMRRGIAELNGEGEVAGGVVILRSGKNAREVIAAVKDKLETLKSSLPEGVEIVTTYDRSQLIDRAIDNLSGKLLEEFIVVAVVCALFLWHVRSALVAIISLPLGLCIAFIVMHFQGLNANIMSLGGIAIAVGAMVDAAIVMIENAHKRLEEWQHQHPDATLDNKTRWQVITDASVEVGPALFISLLIITLSFIPIFTLEGQEGRLFGPLAFTKTYAMAGAALLAIVVIPILMGYWIRGKIPPESSNPLNRFLIRVYHPLLLKVLHWPKTTLLVAALSVLTVLWPLNKVGGEFLPQINEGDLLYMPSTLPGISAAEAASMLQKTDKLIMSVPEVARVFGKTGKAETATDSAPLEMVETTIQLKPQEQWRPGMTMDKIIEELDNTVRLPGLANLWVPPIRNRIDMLSTGIKSPIGIKVSGTVLADIDAMAEQIEEVARTVPGVASALAERLEGGRYINVEINREKAARYGMTVADVQLFVTSAVGGAMVGETVEGIARYPINLRYPQSWRDSPQALRQLPILTPMKQQITLADVADIKVSTGPSMLKTENARPTSWIYIDARDRDMVSVVHDLQKAIAEKVQLKPGTSVAFSGQFELLERANHKLKLMVPMTLMIIFVLLYLAFRRVGEALLIISSVPFALVGGIWLLWWMGFHLSVATGTGFIALAGVAAEFGVVMLMYLRHAIEAVPSLNNPQTFSEQKLDEALYHGAVLRVRPKAMTVAVIIAGLLPILWGTGAGSEVMSRIAAPMIGGMITAPLLSLFIIPAAYKLMWLHRHRVRK

Legend:
crystal structure = molecular target: the molecule itself; experiment: crystal structure
[1] = molecular target: B1; experiment: ITC

Row | Kd [1] | Binder | stoichiometry N (crystal structure)
1 | 5.1 ± 0.3 µM | CusB membrane fusion protein (natural protein, Escherichia coli, UniProt P77239 29-407, looked up) EPPAEKTSTAERKILFWYDPMYPNTRFDKPGKSPFMDMDLVPKYADEESSASGVRIDPTQTQNLGVKTATVTRGPLTFAQSFPANVSYNEYQYAIVQARAAGFIDKVYPLTVGDKVQKGTPLLDLTIPDWVEAQSEYLLLRETGGTATQTEGILERLRLAGMPEADIRRLIATQKIQTRFTLKAPIDGVITAFDLRAGMNIAKDNVVAKIQGMDPVWVTAAIPESIAWLVKDASQFTLTVPARPDKTLTIRKWTLLPGVDAATRTLQLRLEVDNADEALKPGMNAWLQLNTASEPMLLIPSQALIDTGSEQRVITVDADGRFVPKRVAVFQASQGVTALRSGLAEGEKVVSSGLFLIDSEANISGALERMRSESATHAH | 6
2 |  | B1 | 3
